{"source": "paper PMC10384657", "biological_target": "MPER25c (spike S2 membrane proximal region peptide) MPER (Severe acute respiratory syndrome coronavirus 2), P0DTC2", "experiment": "SPR", "conditions": "modification not given"}
{"binder": "FGAGAALQIPFAMQMAYRF", "note": "[PN19 (spike S2 internal fusion peptide)]", "values": [{"measurement": "Kd", "result": 9.44, "unit": "nM"}]}
